Measurements taken from paper PMC12489471, “A multi-dentate, cooperative interaction between endo- and exo-ribonucleases within the bacterial RNA degradosome” (Nucleic Acids Research, 2025).

Assays:
[1] = molecular target: T1, PNPase (Escherichia coli, UniProt P05055); assay type: binding, E. coli; details: SPR, 25°C, immobilized PNPase C-His; HEPES pH 7.2; 0, 12.5, 25 and 50 nM (point mutants); contact 120 s, dissociation 120 s; duplicates
T1 construct: made in house; host or cells: E. coli Evo21(DE3)
T1 sequence (P05055 whole entry, looked up): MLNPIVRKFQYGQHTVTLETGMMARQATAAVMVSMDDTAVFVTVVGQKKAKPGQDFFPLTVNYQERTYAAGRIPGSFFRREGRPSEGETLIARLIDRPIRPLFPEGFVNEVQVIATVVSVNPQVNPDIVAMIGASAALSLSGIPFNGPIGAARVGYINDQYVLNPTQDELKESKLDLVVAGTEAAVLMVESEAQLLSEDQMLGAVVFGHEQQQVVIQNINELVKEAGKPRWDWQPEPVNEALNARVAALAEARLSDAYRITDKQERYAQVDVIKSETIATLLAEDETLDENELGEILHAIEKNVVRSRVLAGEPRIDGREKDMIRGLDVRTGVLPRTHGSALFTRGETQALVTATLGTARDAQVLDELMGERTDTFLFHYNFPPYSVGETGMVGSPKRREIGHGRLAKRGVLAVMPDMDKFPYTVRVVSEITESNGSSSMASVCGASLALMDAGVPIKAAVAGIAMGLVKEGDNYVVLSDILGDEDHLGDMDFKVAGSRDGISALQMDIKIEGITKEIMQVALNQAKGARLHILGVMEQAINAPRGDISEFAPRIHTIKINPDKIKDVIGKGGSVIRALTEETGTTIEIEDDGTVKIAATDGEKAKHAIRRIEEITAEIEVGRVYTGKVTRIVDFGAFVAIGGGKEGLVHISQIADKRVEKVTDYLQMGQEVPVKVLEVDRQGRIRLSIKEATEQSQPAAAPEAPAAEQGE

[2] = system: full-length PNPase; test: Cryo-EM of full-length PNPase:RNase E 960–1061; assay type: binding, E. coli

B1: RNase E 960 – 1061 wildtype: wildtype RNase E peptide 960–1061 (peptide)
chain: VVETAEVVVAEPEVVAQPAAPVVAEVAAEVETVAAVEPEVTVEHNHATAPMTRAPAPEYVPEAPRHSDWQRPTFAFEGKGAAGGHTATHHASAAPARPQPVE
modifications: left off: His6, N-terminal, cleaved | MBP, N-terminal, cleaved | intein, C-terminal, cleaved | choline-binding domain, C-terminal, cleaved
- Kd (dissociation rate constant, point mutants and wildtype) [1]: 0.026 s⁻¹
- location of extra density / binding on PNPase ([2]; cryo-EM, PNPase:RNase E 960–1061): bridging two b-strands
- interaction with KH and S1 domains of PNPase ([2]; preliminary cryo-EM map, full-length PNPase): does not interact with the KH and S1 domains of PNPase
